Data reported in US20040242847A1.

Molecular target: human TPO receptor (MPL) (human) (UniProt P40238)
Experiment: cell-based or functional assay

- proliferation of BaF/mpl cells (WST-8), ED50: 0.027 nM
Substance: human TPO (R&D Systems) (from UniProt P40225 22-353) (ligand)
